Measured values from US20230192789A1, “STRUCTURALLY-STABILIZED AND HDMX-SELECTIVE P53 PEPTIDES AND USES THEREOF” (Dana-Farber Cancer Institute, Inc., priority 2020, published 2023).
Bridges are numbered along the chain shown (N, C = ends). Where no end group is shown, it is not given here. [ ]: non-standard residue; d: D form. The star is where a group is joined. Biotin = O=C1N[C@H]2[C@H](CS[C@H]2CCCCC(=O)*)N1; R8 = C=CCCCCCC[C@@](C)(N)C(=O)O; Cba = N[C@@H](CC1CCC1)C(=O)O; S5 = C=CCCC[C@](C)(N)C(=O)O

T1: recombinant HDMX (amino acids 1-490 of SEQ ID NO:104) (Homo sapiens, UniProt O15151)
T1 construct: thioredoxin (N, cleaved yes); S tag (N, cleaved yes); hexahistidine (N, cleaved yes); made in house; host or cells: E. coli (inferred: pET32-LIC vector, handled as described for HDM2 in BL21(DE3))
T1 sequence (O15151 1-490): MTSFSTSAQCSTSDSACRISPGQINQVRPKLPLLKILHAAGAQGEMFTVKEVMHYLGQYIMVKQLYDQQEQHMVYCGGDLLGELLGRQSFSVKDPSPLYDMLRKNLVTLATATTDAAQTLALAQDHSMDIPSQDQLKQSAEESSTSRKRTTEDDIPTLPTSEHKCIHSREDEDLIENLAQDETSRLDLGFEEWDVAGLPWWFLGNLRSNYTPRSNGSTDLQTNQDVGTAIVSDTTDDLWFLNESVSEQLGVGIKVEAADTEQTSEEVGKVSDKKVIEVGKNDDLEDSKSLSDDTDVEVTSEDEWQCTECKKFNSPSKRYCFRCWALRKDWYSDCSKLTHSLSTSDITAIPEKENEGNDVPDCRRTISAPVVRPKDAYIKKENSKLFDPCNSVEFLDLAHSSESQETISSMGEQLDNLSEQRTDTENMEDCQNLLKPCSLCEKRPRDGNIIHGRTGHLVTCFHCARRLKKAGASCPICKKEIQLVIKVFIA

B1: ATSP-7041 B26C (peptide)
peptide: Biotin-LTF[R8]EYWAQC[S5]SAA-NH2
modifications: staple 4-11
SMILES: CC(C)C[C@H](NC(=O)CCCC[C@@H]1SC[C@@H]2NC(=O)N[C@@H]21)C(=O)N[C@H](C(=O)N[C@@H](Cc1ccccc1)C(=O)N[C@]1(C)CCCCCCC=CCCC[C@@](C)(C(=O)N[C@@H](CO)C(=O)N[C@@H](C)C(=O)N[C@@H](C)C(N)=O)NC(=O)[C@H](CS)NC(=O)[C@H](CCC(N)=O)NC(=O)[C@H](C)NC(=O)[C@H](Cc2c[nH]c3ccccc23)NC(=O)[C@H](Cc2ccc(O)cc2)NC(=O)[C@H](CCC(=O)O)NC1=O)[C@@H](C)O

Target: T2, recombinant HDM2 (amino acids 17-125 of SEQ ID NO:103) (human, UniProt Q00987 17-125)
T2 construct: also called MDM2; not shown: thrombin cleavage site (pET28a vector)
T2 sequence (Q00987 other isoform, or with tags, fused parts or gaps): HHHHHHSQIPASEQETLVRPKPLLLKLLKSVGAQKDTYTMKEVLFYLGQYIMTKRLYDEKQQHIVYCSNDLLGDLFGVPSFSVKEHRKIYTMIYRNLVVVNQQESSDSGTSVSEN
Experiment: streptavidin pull-down of biotinylated peptide with recombinant HDM2 and HDMX (1:1 mixture per paragraph 301), western blot
Settings: not given

| Molecule | binding result |
| --- | --- |
| LTF[R8]EYWAQE[S5]SAA-NH2 (staple 4-11; not fully specified; printed as LTF8EYWAQEXSAA, also called ATSP B26E; LTF8EYWAQEXSAA) [ATSP-7041 B26E] | no binding |
| B1 | no binding |

Target: T1, recombinant HDMX (amino acids 1-490 of SEQ ID NO:104)
Experiment: Competitive streptavidin pull-down of biotinylated peptides with 1:1 recombinant HDM2/HDMX mixture, HDMX western
Format: binding
Settings: biotinylated stapled peptide, 1:1 mixture of recombinant HDM2 and HDMX

| Molecule | HDMX versus HDM2 binding selectivity |
| --- | --- |
| LTF8EYWEQBXSAA (LTF[R8]EYWEQ[Cba][S5]SAA-NH2; staple 4-11; not fully specified (N-terminus); printed as LTF8EYWEQBXSAA) [ATSP-7041 A24E] | restored dual HDM2/HDMX binding selectivity |
| SAH-p53-4 D21A: Formula (I) stapled peptide: [Xaa]w LSQETF, [Xaa]x ALWKLL, [Xaa]y EN (LSQETF[R8]ALWKLL[S5]EN-NH2; staple 7-14; not fully specified (N-terminus)) | HDMX selectivity over HDM2 |
| SAH-p53-4 D21E: Formula (I) stapled peptide: [Xaa]w LSQETF, [Xaa]x ELWKLL, [Xaa]y EN (LSQETF[R8]ELWKLL[S5]EN-NH2; staple 7-14; not fully specified (N-terminus)) | dual selectivity to HDMX and HDM2 |
| SAH-p53-4 D21R: Formula (I) stapled peptide: [Xaa]w LSQETF, [Xaa]x RLWKLL, [Xaa]y EN (LSQETF[R8]RLWKLL[S5]EN-NH2; staple 7-14; not fully specified (N-terminus)) | dual selectivity to HDMX and HDM2 |
| SAH-p53-4 E17R: Formula (I) stapled peptide: [Xaa]w LSQRTF, [Xaa]x DLWKLL, [Xaa]y EN (LSQRTF[R8]DLWKLL[S5]EN-NH2; staple 7-14; not fully specified (N-terminus)) | dual selectivity to HDMX and HDM2 |
| SAH-p53-4 E28R: Formula (I) stapled peptide: [Xaa]w LSQETF, [Xaa]x DLWKLL, [Xaa]y RN (LSQETF[R8]DLWKLL[S5]RN-NH2; staple 7-14; not fully specified (N-terminus)) | dual selectivity to HDMX and HDM2 |
| SAH-p53-4 K24A: Formula (I) stapled peptide: [Xaa]w LSQETF, [Xaa]x DLWALL, [Xaa]y EN (LSQETF[R8]DLWALL[S5]EN-NH2; staple 7-14; not fully specified (N-terminus)) | selectivity to HDM2 |
| SAH-p53-4 K24R: Formula (I) stapled peptide: [Xaa]w LSQETF, [Xaa]x DLWRLL, [Xaa]y EN (LSQETF[R8]DLWRLL[S5]EN-NH2; staple 7-14; not fully specified (N-terminus)) | dual selectivity to HDMX and HDM2 |
| SAH-p53-4 L14A: Formula (I) stapled peptide: [Xaa]w ASQETF, [Xaa]x DLWKLL, [Xaa]y EN (ASQETF[R8]DLWKLL[S5]EN-NH2; staple 7-14; also: biotinylated) | dual selectivity to HDMX and HDM2 |
| SAH-p53-4 L14E: Formula (I) stapled peptide: [Xaa]w ESQETF, [Xaa]x DLWKLL, [Xaa]y EN (ESQETF[R8]DLWKLL[S5]EN-NH2; staple 7-14; also: biotinylated) | selectivity to HDM2 |
| SAH-p53-4 L22A: Formula (I) stapled peptide: [Xaa]w LSQETF, [Xaa]x DAWKLL, [Xaa]y EN (LSQETF[R8]DAWKLL[S5]EN-NH2; staple 7-14; also: biotinylated) | dual selectivity to HDMX and HDM2 |
| SAH-p53-4 L22E: Formula (I) stapled peptide: [Xaa]w LSQETF, [Xaa]x DEWKLL, [Xaa]y EN (LSQETF[R8]DEWKLL[S5]EN-NH2; staple 7-14; also: biotinylated) | dual selectivity to HDMX and HDM2 |
| SAH-p53-4 L25A: Formula (I) stapled peptide: [Xaa]w LSQETF, [Xaa]x DLWKAL, [Xaa]y EN (LSQETF[R8]DLWKAL[S5]EN-NH2; staple 7-14; also: biotinylated) | dual selectivity to HDMX and HDM2 |
| SAH-p53-4 L25E: Formula (I) stapled peptide: [Xaa]w LSQETF, [Xaa]x DLWKEL, [Xaa]y EN (LSQETF[R8]DLWKEL[S5]EN-NH2; staple 7-14; not fully specified) | dual selectivity to HDMX and HDM2 |
| SAH-p53-4 L25R: Formula (I) stapled peptide: [Xaa]w LSQETF, [Xaa]x DLWKRL, [Xaa]y EN (LSQETF[R8]DLWKRL[S5]EN-NH2; staple 7-14; not fully specified) | dual selectivity to HDMX and HDM2 |
| SAH-p53-4 N29E: Formula (I) stapled peptide: [Xaa]w LSQETF, [Xaa]x DLWKLL, [Xaa]y EE (LSQETF[R8]DLWKLL[S5]EE-NH2; staple 7-14; not fully specified) | dual selectivity to HDMX and HDM2 |
| SAH-p53-4 N29R: Formula (I) stapled peptide: [Xaa]w LSQETF, [Xaa]x DLWKLL, [Xaa]y ER (LSQETF[R8]DLWKLL[S5]ER-NH2; staple 7-14; not fully specified (N-terminus)) | HDMX selectivity over HDM2 |
| SAH-p53-4 Q16A: Formula (I) stapled peptide: [Xaa]w LSAETF, [Xaa]x DLWKLL, [Xaa]y EN (LSAETF[R8]DLWKLL[S5]EN-NH2; staple 7-14; not fully specified) | dual selectivity to HDMX and HDM2 |
| SAH-p53-4 Q16E: Formula (I) stapled peptide: [Xaa]w LSEETF, [Xaa]x DLWKLL, [Xaa]y EN (LSEETF[R8]DLWKLL[S5]EN-NH2; staple 7-14; not fully specified (N-terminus)) | HDMX selectivity over HDM2 |
| SAH-p53-4 Q16R: Formula (I) stapled peptide: [Xaa]w LSRETF, [Xaa]x DLWKLL, [Xaa]y EN (LSRETF[R8]DLWKLL[S5]EN-NH2; staple 7-14; not fully specified) | dual selectivity to HDMX and HDM2 |
| SAH-p53-4 S15A: Formula (I) stapled peptide: [Xaa]w LAQETF, [Xaa]x DLWKLL, [Xaa]y EN (LAQETF[R8]DLWKLL[S5]EN-NH2; staple 7-14; not fully specified) | selectivity to HDM2 |
| SAH-p53-4 S15E: Formula (I) stapled peptide: [Xaa]w LEQETF, [Xaa]x DLWKLL, [Xaa]y EN (LEQETF[R8]DLWKLL[S5]EN-NH2; staple 7-14; not fully specified) | selectivity to HDM2 |
| SAH-p53-4 S15R: Formula (I) stapled peptide: [Xaa]w LRQETF, [Xaa]x DLWKLL, [Xaa]y EN (LRQETF[R8]DLWKLL[S5]EN-NH2; staple 7-14; not fully specified) | selectivity to HDM2 |
| SAH-p53-4 T18A: Formula (I) stapled peptide: [Xaa]w LSQEAF, [Xaa]x DLWKLL, [Xaa]y EN (LSQEAF[R8]DLWKLL[S5]EN-NH2; staple 7-14; not fully specified) | dual selectivity to HDMX and HDM2 |
| SAH-p53-4 T18E: Formula (I) stapled peptide: [Xaa]w LSQEEF, [Xaa]x DLWKLL, [Xaa]y EN (LSQEEF[R8]DLWKLL[S5]EN-NH2; staple 7-14; not fully specified) | dual selectivity to HDMX and HDM2 |
| SAH-p53-4 T18R: Formula (I) stapled peptide: [Xaa]w LSQERF, [Xaa]x DLWKLL, [Xaa]y EN (LSQERF[R8]DLWKLL[S5]EN-NH2; staple 7-14; not fully specified) | selectivity to HDM2 |

Same assay, conditions: biotinylated stapled peptide, 1:1 mixture of recombinant HDM2 and HDMX, listed as SEQ ID NO:8

| Molecule | HDMX versus HDM2 binding selectivity |
| --- | --- |
| SAH-p53-4 D21A: Formula (I) stapled peptide: [Xaa]w LSQETF, [Xaa]x ALWKLL, [Xaa]y EN (LSQETF[R8]ALWKLL[S5]EN-NH2; staple 7-14; not fully specified (N-terminus)) | selectivity to HDMX |

Same assay, conditions: biotinylated stapled peptide, 1:1 mixture of recombinant HDM2 and HDMX, listed as SEQ ID NO:29

| Molecule | HDMX versus HDM2 binding selectivity |
| --- | --- |
| SAH-p53-4 N29R: Formula (I) stapled peptide: [Xaa]w LSQETF, [Xaa]x DLWKLL, [Xaa]y ER (LSQETF[R8]DLWKLL[S5]ER-NH2; staple 7-14; not fully specified (N-terminus)) | selectivity to HDMX |

Same assay, conditions: biotinylated stapled peptide, 1:1 mixture of recombinant HDM2 and HDMX, listed as SEQ ID NO:32

| Molecule | HDMX versus HDM2 binding selectivity |
| --- | --- |
| SAH-p53-4 Q16E: Formula (I) stapled peptide: [Xaa]w LSEETF, [Xaa]x DLWKLL, [Xaa]y EN (LSEETF[R8]DLWKLL[S5]EN-NH2; staple 7-14; not fully specified (N-terminus)) | selectivity to HDMX |

Same assay, conditions: biotinylated stapled peptide, 1:1 mixture of recombinant HDM2 and HDMX, listed as SEQ ID NO:77

| Molecule | HDMX versus HDM2 binding selectivity |
| --- | --- |
| LTF8EYWEQBXSAA (LTF[R8]EYWEQ[Cba][S5]SAA-NH2; staple 4-11; not fully specified (N-terminus); printed as LTF8EYWEQBXSAA) [ATSP-7041 A24E] | dual-selectivity to HDMX and HDM2 |
